We go through three molecules from article PMC5576896 (Cell reports, 2016).

First the molecules themselves.
B2: recombinant RECQL4 (natural protein, human, UniProt O94761 1-1208, looked up)
chain: MERLRDVRERLQAWERAFRRQRGRRPSQDDVEAAPEETRALYREYRTLKRTTGQAGGGLRSSESLPAAAEEAPEPRCWGPHLNRAATKSPQSTPGRSRQGSVPDYGQRLKANLKGTLQAGPALGRRPWPLGRASSKASTPKPPGTGPVPSFAEKVSDEPPQLPEPQPRPGRLQHLQASLSQRLGSLDPGWLQRCHSEVPDFLGAPKACRPDLGSEESQLLIPGESAVLGPGAGSQGPEASAFQEVSIRVGSPQPSSSGGEKRRWNEEPWESPAQVQQESSQAGPPSEGAGAVAVEEDPPGEPVQAQPPQPCSSPSNPRYHGLSPSSQARAGKAEGTAPLHIFPRLARHDRGNYVRLNMKQKHYVRGRALRSRLLRKQAWKQKWRKKGECFGGGGATVTTKESCFLNEQFDHWAAQCPRPASEEDTDAVGPEPLVPSPQPVPEVPSLDPTVLPLYSLGPSGQLAETPAEVFQALEQLGHQAFRPGQERAVMRILSGISTLLVLPTGAGKSLCYQLPALLYSRRSPCLTLVVSPLLSLMDDQVSGLPPCLKAACIHSGMTRKQRESVLQKIRAAQVHVLMLTPEALVGAGGLPPAAQLPPVAFACIDEAHCLSQWSHNFRPCYLRVCKVLRERMGVHCFLGLTATATRRTASDVAQHLAVAEEPDLHGPAPVPTNLHLSVSMDRDTDQALLTLLQGKRFQNLDSIIIYCNRREDTERIAALLRTCLHAAWVPGSGGRAPKTTAEAYHAGMCSRERRRVQRAFMQGQLRVVVATVAFGMGLDRPDVRAVLHLGLPPSFESYVQAVGRAGRDGQPAHCHLFLQPQGEDLRELRRHVHADSTDFLAVKRLVQRVFPACTCTCTRPPSEQEGAVGGERPVPKYPPQEAEQLSHQAAPGPRRVCMGHERALPIQLTVQALDMPEEAIETLLCYLELHPHHWLELLATTYTHCRLNCPGGPAQLQALAHRCPPLAVCLAQQLPEDPGQGSSSVEFDMVKLVDSMGWELASVRRALCQLQWDHEPRTGVRRGTGVLVEFSELAFHLRSPGDLTAEEKDQICDFLYGRVQARERQALARLRRTFQAFHSVAFPSCGPCLEQQDEERSTRLKDLLGRYFEEEEGQEPGGMEDAQGPEPGQARLQDWEDQVRCDIRQFLSLRPEEKFSSRAVARIFHGIGSPCYPAQVYGQDRRFWRKYLHLSFHALVGLATEELLQVAR

In one test the target is T1, purified RECQL4-3XFLAG (human, UniProt O94761 1-1208).
T1 sequence (looked up): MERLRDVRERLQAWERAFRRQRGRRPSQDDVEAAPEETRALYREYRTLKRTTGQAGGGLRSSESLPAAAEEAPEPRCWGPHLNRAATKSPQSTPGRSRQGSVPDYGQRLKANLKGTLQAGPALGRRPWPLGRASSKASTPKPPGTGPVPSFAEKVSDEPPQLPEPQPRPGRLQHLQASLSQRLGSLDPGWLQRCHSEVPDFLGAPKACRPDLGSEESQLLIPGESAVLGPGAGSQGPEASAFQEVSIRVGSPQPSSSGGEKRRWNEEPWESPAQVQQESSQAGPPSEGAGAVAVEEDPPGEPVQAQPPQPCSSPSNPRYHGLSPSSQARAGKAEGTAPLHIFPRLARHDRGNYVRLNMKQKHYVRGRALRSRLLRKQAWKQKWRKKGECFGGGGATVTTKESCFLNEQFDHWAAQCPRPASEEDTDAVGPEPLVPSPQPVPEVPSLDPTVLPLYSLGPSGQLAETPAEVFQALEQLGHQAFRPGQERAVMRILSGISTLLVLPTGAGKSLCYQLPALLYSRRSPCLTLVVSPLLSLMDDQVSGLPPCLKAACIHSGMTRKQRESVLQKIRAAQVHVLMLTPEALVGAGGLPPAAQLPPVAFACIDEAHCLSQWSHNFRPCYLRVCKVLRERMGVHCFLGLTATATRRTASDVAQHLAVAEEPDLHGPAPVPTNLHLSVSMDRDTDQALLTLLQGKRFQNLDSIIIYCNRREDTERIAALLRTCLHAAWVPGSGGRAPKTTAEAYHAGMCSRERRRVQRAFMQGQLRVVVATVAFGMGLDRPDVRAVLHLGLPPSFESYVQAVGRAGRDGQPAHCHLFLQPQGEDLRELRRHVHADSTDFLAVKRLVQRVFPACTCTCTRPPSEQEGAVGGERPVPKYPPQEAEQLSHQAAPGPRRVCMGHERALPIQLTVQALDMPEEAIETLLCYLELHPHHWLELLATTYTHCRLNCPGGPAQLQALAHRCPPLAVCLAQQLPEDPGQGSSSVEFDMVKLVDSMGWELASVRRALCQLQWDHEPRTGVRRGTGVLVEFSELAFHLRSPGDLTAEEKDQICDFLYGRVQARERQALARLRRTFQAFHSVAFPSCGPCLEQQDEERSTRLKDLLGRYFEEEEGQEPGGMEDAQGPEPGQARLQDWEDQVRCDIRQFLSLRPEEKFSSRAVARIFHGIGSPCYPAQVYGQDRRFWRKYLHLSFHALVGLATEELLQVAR
Nature of the test: pull-down.

For the next test, the target named is T2, RECQL4-KM-3XFLAG (human, UniProt O94761 1-1208, lysine 508 replaced with methionine (RECQL4-KM)).
T2 sequence (looked up): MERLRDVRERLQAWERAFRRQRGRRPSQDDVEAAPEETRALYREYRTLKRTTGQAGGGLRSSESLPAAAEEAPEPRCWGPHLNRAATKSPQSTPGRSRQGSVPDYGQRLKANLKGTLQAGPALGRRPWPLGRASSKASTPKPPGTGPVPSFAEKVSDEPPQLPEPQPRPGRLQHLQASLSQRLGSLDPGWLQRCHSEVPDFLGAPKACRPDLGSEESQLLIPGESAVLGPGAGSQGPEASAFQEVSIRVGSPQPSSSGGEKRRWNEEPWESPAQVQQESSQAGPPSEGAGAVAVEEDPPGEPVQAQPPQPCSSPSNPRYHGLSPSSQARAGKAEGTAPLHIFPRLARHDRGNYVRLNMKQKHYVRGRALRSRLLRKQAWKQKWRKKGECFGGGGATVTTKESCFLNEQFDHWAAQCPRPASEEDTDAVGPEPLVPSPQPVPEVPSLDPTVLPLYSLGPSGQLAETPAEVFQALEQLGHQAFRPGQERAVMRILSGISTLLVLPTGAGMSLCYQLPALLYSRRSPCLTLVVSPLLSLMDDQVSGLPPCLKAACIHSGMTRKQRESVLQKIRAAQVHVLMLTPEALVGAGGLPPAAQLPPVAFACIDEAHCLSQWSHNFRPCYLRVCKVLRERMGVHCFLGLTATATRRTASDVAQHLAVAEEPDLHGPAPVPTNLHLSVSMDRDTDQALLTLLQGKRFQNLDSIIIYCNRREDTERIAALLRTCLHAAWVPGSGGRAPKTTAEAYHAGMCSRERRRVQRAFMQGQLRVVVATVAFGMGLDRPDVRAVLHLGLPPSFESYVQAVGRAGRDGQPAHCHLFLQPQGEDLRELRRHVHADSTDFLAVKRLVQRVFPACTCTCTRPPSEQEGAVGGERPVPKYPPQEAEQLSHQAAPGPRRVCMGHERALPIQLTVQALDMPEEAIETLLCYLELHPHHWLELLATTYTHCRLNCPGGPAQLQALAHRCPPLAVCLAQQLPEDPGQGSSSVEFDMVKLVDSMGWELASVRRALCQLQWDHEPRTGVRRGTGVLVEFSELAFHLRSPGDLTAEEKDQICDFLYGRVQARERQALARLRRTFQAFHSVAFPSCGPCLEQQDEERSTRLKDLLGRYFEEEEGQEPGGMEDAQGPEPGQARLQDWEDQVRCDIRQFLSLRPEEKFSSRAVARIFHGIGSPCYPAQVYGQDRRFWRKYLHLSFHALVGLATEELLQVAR
In words: pull-down.

Test [1] deals with MRE11-RAD50-NBS1 complex (recombinant) (human, UniProt P49959 1-708; Q92878 1-1312; O60934 1-754). In words: co-IP.
Sequence of MRE11-RAD50-NBS1 complex (recombinant) (Q92878 whole entry, chain 2 of 2): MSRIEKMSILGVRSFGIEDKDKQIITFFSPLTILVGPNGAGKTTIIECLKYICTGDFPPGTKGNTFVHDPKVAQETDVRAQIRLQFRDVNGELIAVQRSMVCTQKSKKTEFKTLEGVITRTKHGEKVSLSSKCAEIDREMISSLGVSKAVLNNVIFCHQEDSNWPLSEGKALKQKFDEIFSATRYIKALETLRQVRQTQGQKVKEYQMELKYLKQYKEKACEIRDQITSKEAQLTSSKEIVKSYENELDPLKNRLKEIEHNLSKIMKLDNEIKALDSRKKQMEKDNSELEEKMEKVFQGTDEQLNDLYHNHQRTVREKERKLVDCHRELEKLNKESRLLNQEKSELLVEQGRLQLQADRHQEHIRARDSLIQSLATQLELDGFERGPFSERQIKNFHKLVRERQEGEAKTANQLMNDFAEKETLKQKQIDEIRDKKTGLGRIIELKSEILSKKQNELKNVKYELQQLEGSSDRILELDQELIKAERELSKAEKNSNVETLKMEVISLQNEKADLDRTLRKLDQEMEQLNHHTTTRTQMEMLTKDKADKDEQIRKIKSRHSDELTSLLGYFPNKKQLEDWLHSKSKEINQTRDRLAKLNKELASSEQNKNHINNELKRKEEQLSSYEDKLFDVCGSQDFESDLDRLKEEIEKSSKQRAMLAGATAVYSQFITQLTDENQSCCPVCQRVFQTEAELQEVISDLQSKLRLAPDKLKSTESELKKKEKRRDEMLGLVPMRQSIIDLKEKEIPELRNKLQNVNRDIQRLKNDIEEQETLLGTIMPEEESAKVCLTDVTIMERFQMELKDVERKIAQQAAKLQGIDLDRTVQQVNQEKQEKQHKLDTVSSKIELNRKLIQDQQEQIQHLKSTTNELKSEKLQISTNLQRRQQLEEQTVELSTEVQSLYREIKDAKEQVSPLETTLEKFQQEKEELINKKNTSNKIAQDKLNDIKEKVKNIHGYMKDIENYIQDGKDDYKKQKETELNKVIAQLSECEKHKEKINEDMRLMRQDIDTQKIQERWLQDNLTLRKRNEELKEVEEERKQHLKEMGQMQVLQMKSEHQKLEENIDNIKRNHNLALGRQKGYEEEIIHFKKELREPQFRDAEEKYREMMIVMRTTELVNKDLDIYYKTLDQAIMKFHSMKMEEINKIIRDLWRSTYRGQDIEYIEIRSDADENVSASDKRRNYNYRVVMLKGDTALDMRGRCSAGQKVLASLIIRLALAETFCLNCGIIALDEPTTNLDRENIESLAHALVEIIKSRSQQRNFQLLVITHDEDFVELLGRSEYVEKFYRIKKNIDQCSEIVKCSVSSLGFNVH
Sequence of MRE11-RAD50-NBS1 complex (recombinant) (O60934 whole entry, chain 3 of 2): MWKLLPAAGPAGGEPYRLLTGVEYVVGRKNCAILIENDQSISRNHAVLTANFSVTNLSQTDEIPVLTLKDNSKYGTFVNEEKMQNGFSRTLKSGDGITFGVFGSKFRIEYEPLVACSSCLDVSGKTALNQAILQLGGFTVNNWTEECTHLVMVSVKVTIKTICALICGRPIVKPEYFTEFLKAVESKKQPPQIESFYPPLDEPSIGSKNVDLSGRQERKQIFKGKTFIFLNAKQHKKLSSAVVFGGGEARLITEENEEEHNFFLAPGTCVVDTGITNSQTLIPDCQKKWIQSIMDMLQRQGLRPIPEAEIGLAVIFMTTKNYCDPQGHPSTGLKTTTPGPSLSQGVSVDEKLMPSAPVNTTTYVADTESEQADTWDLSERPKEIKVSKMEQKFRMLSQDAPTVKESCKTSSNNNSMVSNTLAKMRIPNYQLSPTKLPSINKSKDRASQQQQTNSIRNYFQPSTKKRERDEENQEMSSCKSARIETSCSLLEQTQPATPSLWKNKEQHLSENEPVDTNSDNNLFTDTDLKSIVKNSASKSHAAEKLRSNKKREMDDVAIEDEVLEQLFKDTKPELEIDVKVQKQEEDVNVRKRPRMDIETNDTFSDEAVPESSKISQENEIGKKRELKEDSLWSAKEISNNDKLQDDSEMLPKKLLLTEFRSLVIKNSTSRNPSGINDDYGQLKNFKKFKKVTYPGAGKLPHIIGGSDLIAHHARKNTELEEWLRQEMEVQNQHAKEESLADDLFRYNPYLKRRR
For the test “recombinant RECQL4”, the target named is B2. Nature of the test: co-IP.

B1: purified YFP-MRE11 (natural protein, human, UniProt P49959 1-708, looked up)
chain: MSTADALDDENTFKILVATDIHLGFMEKDAVRGNDTFVTLDEILRLAQENEVDFILLGGDLFHENKPSRKTLHTCLELLRKYCMGDRPVQFEILSDQSVNFGFSKFPWVNYQDGNLNISIPVFSIHGNHDDPTGADALCALDILSCAGFVNHFGRSMSVEKIDISPVLLQKGSTKIALYGLGSIPDERLYRMFVNKKVTMLRPKEDENSWFNLFVIHQNRSKHGSTNFIPEQFLDDFIDLVIWGHEHECKIAPTKNEQQLFYISQPGSSVVTSLSPGEAVKKHVGLLRIKGRKMNMHKIPLHTVRQFFMEDIVLANHPDIFNPDNPKVTQAIQSFCLEKIEEMLENAERERLGNSHQPEKPLVRLRVDYSGGFEPFSVLRFSQKFVDRVANPKDIIHFFRHREQKEKTGEEINFGKLITKPSEGTTLRVEDLVKQYFQTAEKNVQLSLLTERGMGEAVQEFVDKEEKDAIEELVKYQLEKTQRFLKERHIDALEDKIDEEVRRFRETRQKNTNEEDDEVREAMTRARALRSQSEESASAFSADDLMSIDLAEQMANDSDDSISAATNKGRGRGRGRRGGRGQNSASRGGSQRGRADTGLETSTRSRNSKTAVSASRNMSIIDAFKSTRQQPSRNVTTKNYSEVIEVDESDVEEDIFPTTSKTDQRWSSTSSSKIMSQSQVSKGVDFESSEDDDDDPFMNTSSLRRNRR
Take B1: the binding result in the test with purified RECQL4-3XFLAG and with RECQL4-KM-3XFLAG was “binds” in each case.

For the molecule B2, the binding result in test [1] is “binds”.

B3: recombinant CtIP (natural protein, human, UniProt Q99708 1-897, looked up)
chain: MNISGSSCGSPNSADTSSDFKDLWTKLKECHDREVQGLQVKVTKLKQERILDAQRLEEFFTKNQQLREQQKVLHETIKVLEDRLRAGLCDRCAVTEEHMRKKQQEFENIRQQNLKLITELMNERNTLQEENKKLSEQLQQKIENDQQHQAAELECEEDVIPDSPITAFSFSGVNRLRRKENPHVRYIEQTHTKLEHSVCANEMRKVSKSSTHPQHNPNENEILVADTYDQSQSPMAKAHGTSSYTPDKSSFNLATVVAETLGLGVQEESETQGPMSPLGDELYHCLEGNHKKQPFEESTRNTEDSLRFSDSTSKTPPQEELPTRVSSPVFGATSSIKSGLDLNTSLSPSLLQPGKKKHLKTLPFSNTCISRLEKTRSKSEDSALFTHHSLGSEVNKIIIQSSNKQILINKNISESLGEQNRTEYGKDSNTDKHLEPLKSLGGRTSKRKKTEEESEHEVSCPQASFDKENAFPFPMDNQFSMNGDCVMDKPLDLSDRFSAIQRQEKSQGSETSKNKFRQVTLYEALKTIPKGFSSSRKASDGNCTLPKDSPGEPCSQECIILQPLNKCSPDNKPSLQIKEENAVFKIPLRPRESLETENVLDDIKSAGSHEPIKIQTRSDHGGCELASVLQLNPCRTGKIKSLQNNQDVSFENIQWSIDPGADLSQYKMDVTVIDTKDGSQSKLGGETVDMDCTLVSETVLLKMKKQEQKGEKSSNEERKMNDSLEDMFDRTTHEEYESCLADSFSQAADEEEELSTATKKLHTHGDKQDKVKQKAFVEPYFKGDERETSLQNFPHIEVVRKKEERRKLLGHTCKECEIYYADMPAEEREKKLASCSRHRFRYIPPNTPENFWEVGFPSTQTCMERGYIKEDLDPCPRPKRRQPYNAIFSPKGKEQKT
Take B3: the binding result with recombinant RECQL4 is reported as “binds”.
